Results taken from article PMC8073977, “Structural Basis for the C-Terminal Domain of Mycobacterium tuberculosis Ribosome Maturation Factor RimM to Bind Ribosomal Protein S19” (Biomolecules, 2021).

Biological target: T1, Ribosomal protein S19 from Mycobacterium tuberculosis (MtbS19, residues 1-93) (Mycobacterium tuberculosis strain H37Rv, UniProt P9WH45 1-93)
T1 construct: 30S ribosomal protein S19, M. tuberculosis H37Rv, residues 1-93; pET-28a with thrombin-cleavable N-terminal His6-tag; Surmise: a few vector residues remain at the N-terminus after thrombin cleavage; In PDB 5V93 residues 84-93 of S19 are absent; not shown: His6, N-terminal, cleaved
T1 sequence (P9WH45 whole entry, the tested form may be a part): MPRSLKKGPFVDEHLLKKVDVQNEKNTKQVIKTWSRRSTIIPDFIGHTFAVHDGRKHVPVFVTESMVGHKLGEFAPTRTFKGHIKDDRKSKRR
Assay: SPR; Biacore T200, 298 K; […]; 20 mM potassium phosphate pH 7.2, 100 mM KCl; […]
Details: both partners purified

Binder	Kd	binding result
C-terminal domain of RimM from Mycobacterium tuberculosis (MtbRimMCTD, residues 101-176), wild type (domain or fragment, A starting Met stands before D101 (Nde I site); Surmise: pET-22b with Xho I adds Leu-Glu before the His6 tag; Theoretical Mw of the recombinant protein printed as 9.28 kDa; 15N-labelled in the NMR titrations, unlabelled in SPR; also called WT MtbRimMCTD; not shown: His6, C-terminal, kept) DTYYDHQLVGLMVQTATGEGVGVVTEVVHTAAGELLAVKRDSDEVLVPFVRAIVTSVSLDDGIVEIDPPHGLLNLE	2.16 µM	
MtbRimMCTD E126A (domain or fragment, Same limits and tag as m1; not shown: His6, C-terminal, kept) DTYYDHQLVGLMVQTATGEGVGVVTAVVHTAAGELLAVKRDSDEVLVPFVRAIVTSVSLDDGIVEIDPPHGLLNLE		binds
MtbRimMCTD E144A (domain or fragment, Same limits and tag as m1; not shown: His6, C-terminal, kept) DTYYDHQLVGLMVQTATGEGVGVVTEVVHTAAGELLAVKRDSDAVLVPFVRAIVTSVSLDDGIVEIDPPHGLLNLE		binds
MtbRimMCTD H129A (domain or fragment, Same limits and tag as m1; not shown: His6, C-terminal, kept) DTYYDHQLVGLMVQTATGEGVGVVTEVVATAAGELLAVKRDSDEVLVPFVRAIVTSVSLDDGIVEIDPPHGLLNLE	12.7 µM	
MtbRimMCTD D105A (domain or fragment, Same limits and tag as m1; also called MtbRimM D105A; not shown: His6, C-terminal, kept) DTYYAHQLVGLMVQTATGEGVGVVTEVVHTAAGELLAVKRDSDEVLVPFVRAIVTSVSLDDGIVEIDPPHGLLNLE	7.06 µM	
